The assay has as its target 47 aa syntaxin peptide corresponding to the SNARE interaction part of the syntaxin sequence (aa 201-248) (UniProt P32851). Kind of assay: SPR; Biacore 2000, syntaxin peptide covalently immobilised on a CM5 chip; 0.13 mg/ml S-B in buffer B for 5 min; then washing or denaturing reagents 1 min each; 25°C. Background: SPR reads the build-up and loss of mass on a sensor chip optically.

S-B, fusion of brevin to the C-terminus of SNAP25, sequence (chain): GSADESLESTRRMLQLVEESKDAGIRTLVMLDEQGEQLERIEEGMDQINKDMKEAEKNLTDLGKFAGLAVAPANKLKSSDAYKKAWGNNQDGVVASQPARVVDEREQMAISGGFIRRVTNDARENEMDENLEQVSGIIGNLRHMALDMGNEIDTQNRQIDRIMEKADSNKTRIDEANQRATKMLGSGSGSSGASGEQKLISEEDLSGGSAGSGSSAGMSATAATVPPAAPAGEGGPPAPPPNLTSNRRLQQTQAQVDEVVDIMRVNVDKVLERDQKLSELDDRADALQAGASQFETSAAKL

In turn, “S-B, fusion of brevin to the C-terminus of SNAP25” returned a percent of originally bound S-B resistant to the harsh treatments of under 50%.

For the origin of these results see article PMC2885309.
